The text below walks through data of patent US20240228595A1.

This test addresses SARS-COV-2 RBD-his tag protein (Sino Biological) (SARS-CoV-2) (UniProt P0DTC2). Description: ELISA, SARS-CoV-2-WA-1 RBD coated, antibody titrated.

With S309 (Sotrovimab) (antibody), the EC50 came to 2 ng/mL.
